One series addresses SIRT6(1-300) (human, UniProt Q8N6T7 1-300). In words: EMSA. On the technique in general: Mobility shift assays separate free from complexed probe on a gel.
Series [1] addresses SIRT6 full length (SIRT6FL) (human, UniProt Q8N6T7 1-355). In words: EMSA.

Chain of SIRT6(1-300) (Q8N6T7 1-300): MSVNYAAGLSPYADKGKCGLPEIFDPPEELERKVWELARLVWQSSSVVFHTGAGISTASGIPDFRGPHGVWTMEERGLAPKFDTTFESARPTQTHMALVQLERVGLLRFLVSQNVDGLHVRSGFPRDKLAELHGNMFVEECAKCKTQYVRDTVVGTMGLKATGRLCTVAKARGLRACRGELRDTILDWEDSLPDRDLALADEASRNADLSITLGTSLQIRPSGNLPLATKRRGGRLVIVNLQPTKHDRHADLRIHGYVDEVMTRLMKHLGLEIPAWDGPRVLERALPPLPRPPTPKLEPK
Chain of SIRT6 full length (SIRT6FL) (Q8N6T7 whole entry): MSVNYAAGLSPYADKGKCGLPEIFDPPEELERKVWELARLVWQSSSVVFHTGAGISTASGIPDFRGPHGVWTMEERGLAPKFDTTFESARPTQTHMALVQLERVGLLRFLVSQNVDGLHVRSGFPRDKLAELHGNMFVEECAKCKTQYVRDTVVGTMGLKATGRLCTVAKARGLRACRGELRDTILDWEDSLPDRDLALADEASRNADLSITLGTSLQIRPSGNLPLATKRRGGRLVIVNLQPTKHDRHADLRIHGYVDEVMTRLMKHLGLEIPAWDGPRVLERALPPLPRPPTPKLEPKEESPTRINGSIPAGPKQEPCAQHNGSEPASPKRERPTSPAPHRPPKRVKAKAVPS

B1: fluorescent dsDNA 47 bp (dsDNA)
DNA 1: CAGATCTACCGAATCAGTCCGACGACGCATCTGCACTACGAGGATAC
DNA 2: GTATCCTCGTAGTGCAGATGCGTCGTCGGACTGATTCGGTAGATCTG
Regarding B1, the results for the Kd (with SIRT6(1-300); in series [1]) were 9.68 ± 0.39 µM and 1.93 ± 0.1 µM, respectively.

One may read the Kd as a measure of binding affinity in units of concentration. Lower therefore signals a tighter complex.

The values are drawn from paper PMC10633859.
